Results as given in the supplement of paper PMC10065799, “High-throughput profiling of sequence recognition by tyrosine kinases and SH2 domains using bacterial peptide display” (eLife, 2023).

Target: FGFR1 (UniProt P11362)
Assay: phosphorylation enrichment, bacterial display (enrichment ratio); higher = better substrate or ligand; peptides without Tyr show the background
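Throughout, for SH2 binding enrichment of the phosphorylated peptide, bacterial display: peptide library displayed on the E. coli surface as eCPX fusions, selected cells deep-sequenced, score is each peptide's frequency after selection divided by its frequency in the input.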
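Throughout, for phosphorylation enrichment, bacterial display: 11-residue human phosphosite peptides and single-mutation variants displayed on the E. coli surface, counted by deep sequencing, each peptide's frequency after selection divided by its frequency in the unselected input library; frequency after pTyr selection over input frequency; kinase dosed for 20-30% of maximal phosphorylation in three min.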

FGFR1, sequence (P11362 whole entry, looked up): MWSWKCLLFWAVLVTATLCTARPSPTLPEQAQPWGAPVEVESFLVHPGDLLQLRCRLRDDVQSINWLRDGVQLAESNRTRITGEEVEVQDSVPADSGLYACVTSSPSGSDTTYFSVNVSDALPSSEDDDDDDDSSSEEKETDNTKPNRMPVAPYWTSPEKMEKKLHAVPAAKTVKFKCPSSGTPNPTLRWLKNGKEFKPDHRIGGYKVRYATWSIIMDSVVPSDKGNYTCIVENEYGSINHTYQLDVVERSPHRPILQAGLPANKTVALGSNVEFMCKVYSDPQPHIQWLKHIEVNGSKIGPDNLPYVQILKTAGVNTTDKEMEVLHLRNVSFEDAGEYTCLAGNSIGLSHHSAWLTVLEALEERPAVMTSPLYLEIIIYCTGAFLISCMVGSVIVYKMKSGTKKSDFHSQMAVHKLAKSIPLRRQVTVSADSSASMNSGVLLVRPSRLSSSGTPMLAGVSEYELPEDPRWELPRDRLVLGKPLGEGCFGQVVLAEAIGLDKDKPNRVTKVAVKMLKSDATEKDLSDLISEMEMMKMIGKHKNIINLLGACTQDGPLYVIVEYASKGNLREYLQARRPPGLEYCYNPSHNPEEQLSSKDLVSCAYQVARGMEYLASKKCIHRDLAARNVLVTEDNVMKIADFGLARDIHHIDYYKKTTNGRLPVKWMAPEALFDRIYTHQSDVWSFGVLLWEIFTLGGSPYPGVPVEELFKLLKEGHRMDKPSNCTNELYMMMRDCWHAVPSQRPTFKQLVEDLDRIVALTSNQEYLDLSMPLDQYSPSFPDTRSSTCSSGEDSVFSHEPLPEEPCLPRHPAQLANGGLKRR

Row | Sequence | phosphorylation enrichment
1 | NFADPYRQLPF [CTNND2_Y503_Q507P_YF] | 0.661
2 | VYAANYYKLLG [ROR2_Y645_D644N] | 7.46
3 | CQAHGYSCQLI [STK11_Y156_F157S] | 0.529
4 | GMRHGHGVRQS [JPH2_Y141_Y141H] | 0.471
5 | LWPIWYSCHRP [MRGPRX1_Y130_R131S] | 0.643
6 | PFFASYPPSPD [GDAP2_Y491_T489A_YF] | 0.747
7 | CTTSHYNYMCN [TP53_Y234_I232S] | 0.569
8 | YIRRDYEACKA [BBS4_Y48_K46R] | 0.633
9 | SISYDYCRVPM [BST2_Y8_T4I] | 7.84
10 | LPHVIYCRLWC [SMAD2_Y128_R133C] | 0.557
11 | LHAAAYWNALA [UQCRC2_Y182_R183W] | 0.379
12 | AGADGYGYLAP [FOXL2_Y186] | 0.37
13 | PVQAAYKKVVA [HBB_Y131_Q132K] | 0.534
14 | KVIDMYLMGCF [GABRB2_Y308_A304V] | 0.619
15 | LRFDVYGGENE [STOX1_Y610_E608D_YF] | 0.509
16 | DTYDPYLDVAL [USP36_Y268] | 0.742
17 | EVVGKYSVHNA [MLH1_Y183_R182K] | 0.352

Row | Sequence | phosphorylation enrichment
18 | NSIGNYYKPWF [DHCR24_Y299] | 5.3
19 | PNEAVYTKMMT [G6PD_Y401] | 0.555
20 | CTTIHKNFMCN [TP53_Y234_Y234K_YF] | 0.486
21 | QAEELYFGKMG [YES1_Y159_W158L] | 1.49
22 | ESLRSYDVMDV [KCNQ2_Y562_P561S] | 0.581
23 | AIIGIYILRDD [CDH23_Y2949] | 0.484
24 | ESLSSYWESAK [APOC2_Y47] | 0.63
25 | EGDGVYTLNDE [HP_Y125_N129D] | 0.453
26 | RKVLVYDKLNV [ROR2_Y624_N620K] | 0.49
27 | AACQHYGVRTC [NR4A2_Y275] | 0.472
28 | RNFVHYVQGLK [VWF_Y1400_R1399H] | 0.429
29 | CLEKEYFDQHF [NPC1_Y394_R389C] | 0.949
30 | KPLMPCMRFSR [SMARCE1_Y73_Y73C_YF] | 0.393
31 | SDYYAYSPVQE [H6PD_Y449_R453Q] | 15.8
32 | AAQNCYKVTNG [TPI1_Y105] | 0.523
33 | RRAVKYLQMVG [AVPR2_Y117_C112R] | 0.52

Target: SHP2-C SH2
Assay: SH2 binding enrichment of the phosphorylated peptide, bacterial display (enrichment ratio); higher = better substrate or ligand; peptides without Tyr show the background

Row | Sequence | SH2 binding enrichment
34 | NFADPYRQLPF [CTNND2_Y503_Q507P_YF] | 0.817
35 | VYAANYYKLLG [ROR2_Y645_D644N] | 0.555
36 | CQAHGYSCQLI [STK11_Y156_F157S] | 0.847
37 | GMRHGHGVRQS [JPH2_Y141_Y141H] | 1.31
38 | LWPIWYSCHRP [MRGPRX1_Y130_R131S] | 0.665
39 | PFFASYPPSPD [GDAP2_Y491_T489A_YF] | 0.847
40 | CTTSHYNYMCN [TP53_Y234_I232S] | 2.04
41 | YIRRDYEACKA [BBS4_Y48_K46R] | 0.917
42 | SISYDYCRVPM [BST2_Y8_T4I] | 0.705
43 | LPHVIYCRLWC [SMAD2_Y128_R133C] | 1.49
44 | LHAAAYWNALA [UQCRC2_Y182_R183W] | 1.24
45 | AGADGYGYLAP [FOXL2_Y186] | 0.339
46 | PVQAAYKKVVA [HBB_Y131_Q132K] | 0.613
47 | KVIDMYLMGCF [GABRB2_Y308_A304V] | 0.917
48 | LRFDVYGGENE [STOX1_Y610_E608D_YF] | 0.798
49 | DTYDPYLDVAL [USP36_Y268] | 0.559
50 | EVVGKYSVHNA [MLH1_Y183_R182K] | 0.842

Row | Sequence | SH2 binding enrichment
51 | NSIGNYYKPWF [DHCR24_Y299] | 2.39
52 | PNEAVYTKMMT [G6PD_Y401] | 0.811
53 | CTTIHKNFMCN [TP53_Y234_Y234K_YF] | 0.795
54 | QAEELYFGKMG [YES1_Y159_W158L] | 0.455
55 | ESLRSYDVMDV [KCNQ2_Y562_P561S] | 0.473
56 | AIIGIYILRDD [CDH23_Y2949] | 1.11
57 | ESLSSYWESAK [APOC2_Y47] | 0.753
58 | EGDGVYTLNDE [HP_Y125_N129D] | 0.445
59 | RKVLVYDKLNV [ROR2_Y624_N620K] | 1.09
60 | AACQHYGVRTC [NR4A2_Y275] | 0.896
61 | RNFVHYVQGLK [VWF_Y1400_R1399H] | 1.96
62 | CLEKEYFDQHF [NPC1_Y394_R389C] | 0.547
63 | KPLMPCMRFSR [SMARCE1_Y73_Y73C_YF] | 0.912
64 | SDYYAYSPVQE [H6PD_Y449_R453Q] | 0.971
65 | AAQNCYKVTNG [TPI1_Y105] | 0.543
66 | RRAVKYLQMVG [AVPR2_Y117_C112R] | 0.695

Target: c-Src SH2
Assay: as above

Row | Sequence | SH2 binding enrichment
67 | NFADPYRQLPF [CTNND2_Y503_Q507P_YF] | 0.612
68 | VYAANYYKLLG [ROR2_Y645_D644N] | 0.506
69 | CQAHGYSCQLI [STK11_Y156_F157S] | 0.768
70 | GMRHGHGVRQS [JPH2_Y141_Y141H] | 1
71 | LWPIWYSCHRP [MRGPRX1_Y130_R131S] | 0.535
72 | PFFASYPPSPD [GDAP2_Y491_T489A_YF] | 0.658
73 | CTTSHYNYMCN [TP53_Y234_I232S] | 11
74 | YIRRDYEACKA [BBS4_Y48_K46R] | 0.514
75 | SISYDYCRVPM [BST2_Y8_T4I] | 0.831
76 | LPHVIYCRLWC [SMAD2_Y128_R133C] | 1.42
77 | LHAAAYWNALA [UQCRC2_Y182_R183W] | 1.11
78 | AGADGYGYLAP [FOXL2_Y186] | 1.09
79 | PVQAAYKKVVA [HBB_Y131_Q132K] | 0.524
80 | KVIDMYLMGCF [GABRB2_Y308_A304V] | 0.363
81 | LRFDVYGGENE [STOX1_Y610_E608D_YF] | 0.523
82 | DTYDPYLDVAL [USP36_Y268] | 0.509
83 | EVVGKYSVHNA [MLH1_Y183_R182K] | 0.455

Row | Sequence | SH2 binding enrichment
84 | NSIGNYYKPWF [DHCR24_Y299] | 1.09
85 | PNEAVYTKMMT [G6PD_Y401] | 2
86 | CTTIHKNFMCN [TP53_Y234_Y234K_YF] | 0.653
87 | QAEELYFGKMG [YES1_Y159_W158L] | 0.483
88 | ESLRSYDVMDV [KCNQ2_Y562_P561S] | 9.05
89 | AIIGIYILRDD [CDH23_Y2949] | 1.04
90 | ESLSSYWESAK [APOC2_Y47] | 0.713
91 | EGDGVYTLNDE [HP_Y125_N129D] | 0.532
92 | RKVLVYDKLNV [ROR2_Y624_N620K] | 1.44
93 | AACQHYGVRTC [NR4A2_Y275] | 0.721
94 | RNFVHYVQGLK [VWF_Y1400_R1399H] | 0.7
95 | CLEKEYFDQHF [NPC1_Y394_R389C] | 0.752
96 | KPLMPCMRFSR [SMARCE1_Y73_Y73C_YF] | 0.477
97 | SDYYAYSPVQE [H6PD_Y449_R453Q] | 1.3
98 | AAQNCYKVTNG [TPI1_Y105] | 0.594
99 | RRAVKYLQMVG [AVPR2_Y117_C112R] | 0.525

Target: Grb2 SH2 (UniProt P62993)
Sequence (P62993 whole entry, looked up): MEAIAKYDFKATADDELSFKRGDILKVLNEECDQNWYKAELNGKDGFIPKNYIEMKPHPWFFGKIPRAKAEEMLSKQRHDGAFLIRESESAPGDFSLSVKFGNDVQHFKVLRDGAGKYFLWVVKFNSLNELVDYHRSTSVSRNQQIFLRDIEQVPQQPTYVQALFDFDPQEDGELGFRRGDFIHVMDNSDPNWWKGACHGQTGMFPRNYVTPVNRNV
Assay: as above

Row | Sequence | SH2 binding enrichment
100 | NFADPYRQLPF [CTNND2_Y503_Q507P_YF] | 0.728
101 | VYAANYYKLLG [ROR2_Y645_D644N] | 0.699
102 | CQAHGYSCQLI [STK11_Y156_F157S] | 0.854
103 | GMRHGHGVRQS [JPH2_Y141_Y141H] | 1.27
104 | LWPIWYSCHRP [MRGPRX1_Y130_R131S] | 0.924
105 | PFFASYPPSPD [GDAP2_Y491_T489A_YF] | 1.01
106 | CTTSHYNYMCN [TP53_Y234_I232S] | 1.01
107 | YIRRDYEACKA [BBS4_Y48_K46R] | 0.48
108 | SISYDYCRVPM [BST2_Y8_T4I] | 1.01
109 | LPHVIYCRLWC [SMAD2_Y128_R133C] | 1.76
110 | LHAAAYWNALA [UQCRC2_Y182_R183W] | 1.36
111 | AGADGYGYLAP [FOXL2_Y186] | 0.759
112 | PVQAAYKKVVA [HBB_Y131_Q132K] | 0.834
113 | KVIDMYLMGCF [GABRB2_Y308_A304V] | 0.795
114 | LRFDVYGGENE [STOX1_Y610_E608D_YF] | 0.943
115 | DTYDPYLDVAL [USP36_Y268] | 0.751
116 | EVVGKYSVHNA [MLH1_Y183_R182K] | 0.954

Row | Sequence | SH2 binding enrichment
117 | NSIGNYYKPWF [DHCR24_Y299] | 1.14
118 | PNEAVYTKMMT [G6PD_Y401] | 0.899
119 | CTTIHKNFMCN [TP53_Y234_Y234K_YF] | 1.1
120 | QAEELYFGKMG [YES1_Y159_W158L] | 0.795
121 | ESLRSYDVMDV [KCNQ2_Y562_P561S] | 0.712
122 | AIIGIYILRDD [CDH23_Y2949] | 1.47
123 | ESLSSYWESAK [APOC2_Y47] | 0.889
124 | EGDGVYTLNDE [HP_Y125_N129D] | 0.872
125 | RKVLVYDKLNV [ROR2_Y624_N620K] | 0.906
126 | AACQHYGVRTC [NR4A2_Y275] | 1
127 | RNFVHYVQGLK [VWF_Y1400_R1399H] | 1.14
128 | CLEKEYFDQHF [NPC1_Y394_R389C] | 0.906
129 | KPLMPCMRFSR [SMARCE1_Y73_Y73C_YF] | 0.858
130 | SDYYAYSPVQE [H6PD_Y449_R453Q] | 1.01
131 | AAQNCYKVTNG [TPI1_Y105] | 0.852
132 | RRAVKYLQMVG [AVPR2_Y117_C112R] | 0.84
